The values below come from patent US11517591B2, “Immunogenic peptides specific to BCMA and TACI antigens” (Dana-Farber Cancer Institute, Inc., priority 2017, dated 2022).

Experiment [1] concerns the target T1, HLA-A2 molecule (Homo sapiens, UniProt P04439, D140Y/D185E/D98H/E176V/E277Q/G131W/G231S/I119V/I121R/I166T/I218V/L300P/L318F/N151K/N90K/P208A/P217A/Q86G/Q94H/R138H/R169H/T345S).
T1 construct: endogenous in cells; host or cells: T2 cell line (human B and T cell hybrid), provided by Dr. J. Molldrem
The experiment in a line: HLA-A2 binding affinity assay on peptide-pulsed T2 cells (HLA-A2 up-regulation, flow cytometry MFI). The settings on record: for HLA-A2 binding affinity, heteroclitic vs native peptide: Example 4, FIGS. 4 and 5; for change in HLA-A2 binding affinity of heteroclitic BCMA peptide compared to native peptide: Example 12, n=3, p<0.05; for HLA-A2 binding affinity of native BCMA peptides: Example 12, six native peptides; for HLA-A2 specificity (up-regulation of HLA-A2 on T2 cells, MFI): native peptides 0-200 μg/ml, overnight, Example 3, FIGS. 2, 3; for HLA-A2 affinity of heteroclitic TACI peptide compared to native peptide: Example 13, peptide doses 50 μg/ml and 100 μg/ml. Here is the method:
The listed BCMA peptides were evaluated for HLA-A2-specific binding capacity using the T2 cell line. In the assay, T2 cells were washed, resuspended in serum-free AIM-V medium to a final concentration of 1×10^6 cells/ml and transferred into wells of a 24-well tissue culture plate. The cells were pulsed with different concentrations of respective BCMA peptide (0-200 μg/ml) plus 3 μg/ml human β2-microglobulin (Sigma) and incubated at 37° C., 5% CO2 in humidified air. Following overnight incubation, the cells were washed, stained with mouse anti-human HLA-A2-FITC mAb for 15 minutes at 4° C., washed and analyzed using a FACSort™ flow cytometer with CellQuest™ v2.1 software (Becton Dickinson, San Jose, Calif.). […] Among the BCMA peptides evaluated, “#4. […] (FIG. 2).
(§1) T2 cells were pulsed overnight with various doses of peptide plus β2-microglobulin (3 μg/ml) (Sigma, St Louis, Mo.). Following overnight incubation, the cells were stained with HLA-A2-PE mAb and analyzed using a FACSCanto™ flow cytometer (BD). Peptide/HLA-A2 complex stability was measured on peptide loaded T2 cells at 0, 2, 4, 6 and 14 hours post-brefeldin A treatment by staining with HLA-A2-PE mAb and flow cytometric analysis.
(§2) T2 cells were pulsed overnight with various concentrations of peptide plus β2-microglobulin (3 μg/ml) (Sigma, St Louis, Mo.). Following overnight incubation, the cells were stained with HLA-A2-PE mAb and analyzed using a FACSCanto™ flow cytometer (BD). The stability of peptide/HLA-A2 complex binding was measured on peptide loaded T2 cells at 0, 2, 4, 6 and 14 hours post-brefeldin A treatment followed by staining with HLA-A2-PE mAb and flow cytometric analysis.
For orientation: Flow cytometry measures light scatter and fluorescence of single cells or particles in a stream.

The target of experiment [2] is T1, HLA-A2 molecule. Description: Peptide/HLA-A2 complex stability on peptide-loaded T2 cells post-brefeldin A. It is filed as binding. Here is the method: The native and heteroclitic BCMA and TACI peptides were examined for HLA-A2 binding stability using the T2 cell line. T2 cells were pulsed with the respective peptide. After overnight incubation, the cells were washed to remove unbound peptide; they were evaluated for binding affinity as shown above and stability as following. The cells were incubated with 10 μg/ml Brefeldin A (Sigma) at 37° C. and 5% CO2 for 1 hour to block cell surface expression of newly synthesized HLA-A2 molecules. Peptide/HLA-A2 binding stability was evaluated at 0, 2, 4, 6 and 18 hours post-Brefeldin A treatment. Following the incubation period, the cells were harvested, washed, stained with mouse anti-human HLA-A2-FITC mAb and analyzed by flow cytometry. […] Therefore, the Heteroclitic #4 BCMA72-80 (YLMFLLRKI (SEQ ID NO: 13)) and Heteroclitic #3. TACI154-162 (YLSADQVAL (SEQ ID NO: 16) peptides were selected for further evaluation of their immunogenic potential to generate MM-specific cytotoxic T cells (CTLs).
as §1, §2

A further experiment has as its system tumor cells. The experiment in a line: Combination of peptide stimulation/vaccination with immune modulatory drugs, peptide-specific CTL activity. It is filed as cell-based, human. To be noted: in combination with XBP1/CD138/CS1 peptide stimulation/vaccination. The text has this:
Even in patients with refractory MINI relapsing after allotransplantation, long-lasting responses have been achieved with the infusion of donor lymphocytes (DLI). These early encouraging results of DLI have provided the framework for evaluation of active-specific immunotherapy approaches to treat MM. […] The success of vaccination depends on selection of the appropriate patient population, targeting antigens expressed selectively on tumor, and utilizing combination approaches to effectively induce and maintain antigen-specific memory anti-tumor immune responses. […] Importantly, these effects were confined primarily to antigen-specific CD45RO^+ memory CTL, with the most robust increases in IFN-γ and granzyme B production and CD8^+ T cell proliferation in response to tumor cells observed mainly within the specific CM subset.

Experiment [3] has as its system CD3+ T cells obtained from HLA-A2+ donors. The experiment in a line: Induction and phenotypic analysis of peptide-specific CTL by repeated peptide stimulation. It is filed as cell-based, human. Here is the method:
The peptide-specific CTL were generated from different HLA-A2^+ normal donors for the evaluation of the functional activities targeting MM cell lines. To generate the peptide-specific CTL, mature dendritic cells (mDC) generated from the same donor were resuspended in serum-free AIM-V media and pulsed with 50 μg/ml of the Heteroclitic #4 BCMA72-80 (YLMFLLRKI (SEQ ID NO: 13)) peptide or “Heteroclitic #3 TACI154-162 (YLSADQVAL (SEQ ID NO: 16))” peptide, overnight at 37° C., 5% CO2 in humidified air. The peptide-pulsed mDC were washed, counted, irradiated at 10 Gy and used to prime CD3^+ T cells at a 1:20 antigen-presenting cells/peptide-to-CD3^+ T cell ratio in AIM-V media supplemented with 10% human AB serum. […] To maintain the T cells ex vivo, IL-2 (50 U/ml) was added to the cultures two days after the second stimulation. Control T cell cultures were maintained under the same culture conditions in the presence of IL-2 (50 U/ml), but without peptide stimulation. Phenotype of the resulting CTL was evaluated one week after each cycle of peptide stimulation. […] The BCMA peptide-specific CTL cultures contained a higher percentage of CD8^+ T cells (˜80%) upon 4 cycle of peptide stimulation compared to non-peptide stimulated control T cells (˜20%) (FIGS. 8A-8C).
Antigen-specific CTL can be phenotypically identified as activated/memory T cells from naïve T cells by their expression of distinct cell surface antigens. The phenotype of the BCMA-CTL were examined as potential effector cells by analyzing the phenotype of naïve and memory cells. BCMA peptide-specific CTL were generated by repeated stimulation of HLA-A2^+ normal donor's CD3^+ T cells weekly with antigen-presenting cells pulsed with 50 μg/ml heteroclitic BCMA72-80 (YLMFLLRKI (SEQ ID NO: 13)). One week after each peptide stimulation, the resulting CTL were evaluated for their phenotypic profile by flow cytometry.
BCMA peptide-specific CTL (BCMA-CTL) were generated ex vivo by repeated stimulation of CD3^+ T cells obtained from HLA-A2^+ donors with peptide-pulsed antigen-presenting cells (APC). In brief, peptide (50 μg/ml)-pulsed APC were irradiated (10 Gy) and used to stimulate T cells at a 1 APC/peptide: 20 T cell ratio. The T cell cultures were restimulated every 7 days and maintained in AIM-V medium supplemented with 10% human AB serum (BioWhittaker) in the presence of IL-2 (50 units/ml).
Phenotypic characterization was performed on BCMA-CTL after staining with Live/Dead Aqua stain kit and fluorochrome conjugated anti-human mAbs and Tetramer-PE. Alternatively, the MM and breast cancer cell lines were stained with fluorochrome-conjugated BCMA or HLA-A2 mAb. After staining, the cells were washed, fixed in 2% paraformaldehyde, and analyzed by flow cytometry.
TACI peptide-specific CTL (TACI-CTL) were generated ex vivo by repeated stimulation of enriched CD3^+ T cells obtained from HLA-A2^+ donors with peptide-pulsed antigen-presenting cells (APC). In brief, peptide (50 μg/ml)-pulsed APC were irradiated (10 Gy) and used to stimulate T cells at a 1:20 APC/peptide-to-T cell ratio. The T cell cultures were restimulated every 7 days and maintained in AIM-V medium supplemented with 10% human AB serum (BioWhittaker) in the presence of IL-2 (50 units/ml).
Phenotypic characterization was performed on the MM target cells to conform TACI expression. Phenotypic characterization was performed on the TACI-CTL after staining with Live/Dead Aqua stain kit and fluorochrome conjugated anti-human mAbs. After staining, the cells were washed, fixed in 2% paraformaldehyde, and analyzed by flow cytometry.

Experiment [4] concerns patients with smoldering MM (SMM). The experiment in a line: Clinical trials of XBP1/CD138/CS1 multipeptide vaccine in smoldering MM. It is filed as in vivo, human. The settings on record: multipeptide vaccine in combination with lenalidomide. The source says:
Due to the encouraging preclinical results, the XBP1/CD138/CS1 multipeptide vaccine has been evaluated, alone and in combination with lenalidomide, in clinical trials to treat patients with smoldering MM (SMM), as well as in combination with anti-PD1 in clinical trials to treat patients with triple negative breast cancer. […] Although stable disease and responses have been observed in SMM, randomized trials are needed to assess whether time to progression from SMM to active disease can be prolonged by the peptide vaccination.

The mark [5] stands for this setting: after 3 cycles of peptide stimulation.
[6] abbreviates: after 4 cycles of peptide stimulation.

On to “YILWTCLGL [heteroclitic hBCMA54-62, heteroclitic BCMA peptide]”, for which, in the experiment with HLA-A2 molecule [1], the “HLA-A2 binding affinity, heteroclitic vs native peptide” value is “increased from their native peptide” and the “change in HLA-A2 binding affinity of heteroclitic BCMA peptide compared to native peptide” value is on record as “highest increase in HLA-A2 binding affinity”. The “HLA-A2 stability of heteroclitic vs native BCMA peptide” value in the experiment with HLA-A2 molecule [2] (Example 12) is recorded as “further enhanced”.

As to “YQNEYFDSL [heteroclite BCMA9-17, heteroclitic BCMA peptide]”, in the experiment with HLA-A2 molecule [1], the “change in HLA-A2 binding affinity of heteroclitic BCMA peptide compared to native peptide” value is “did not alter its HLA-A2 affinity status”.

As to “VLMFLLRKI [BCMA72-80 (VLMFLLRKI), native BCMA peptide]”, in the experiment with HLA-A2 molecule [1], the “HLA-A2 binding affinity of native BCMA peptides” value is given as “highest HLA-A2 binding affinity in a dose-dependent manner” and the “HLA-A2 specificity (up-regulation of HLA-A2 on T2 cells, MFI)” value (shortened to “HLA-A2 specificity”) is “highest level of HLA-A2 specificity”.

With `O=C(CCCCCCNC(=O)c1cnc(N(c2ccccc2)c2ccccc2Cl)nc1)NO` [ACY241], the “peptides-specific CTL activities against tumor cells” value in the experiment on tumor cells was “enhanced the peptides-specific CTL activities against tumor cells”.

Take “SQNEYFDSL [BCMA9-17 (SQNEYFDSL), native BCMA peptide]”: the “HLA-A2 binding affinity of native BCMA peptides” value with HLA-A2 molecule [1] was “non-HLA-A2 specific”.

For “YLSADQVAL [heteroclitic TACI154-162, heteroclitic TACI peptide]”, in the experiment with HLA-A2 molecule [1], the “HLA-A2 binding affinity, heteroclitic vs native peptide” value is on record as “increased from their native peptide” and the “HLA-A2 affinity of heteroclitic TACI peptide compared to native peptide” value (from here on “HLA-A2 affinity … compared to native peptide”) was “greatly enhanced affinity from its native form”. Also, in the experiment with HLA-A2 molecule [2] (50 ug/ml, 0, 2, 4, 6 and 18 hours post-Brefeldin A, Example 4, FIGS. 6 and 7), the “HLA-A2 binding stability, heteroclitic vs native peptide” value is “significant improvement in their HLA-A2 affinity at all the time points evaluated”. Moreover, in the experiment with HLA-A2 molecule [2] (TACI peptides 50 μg/ml, 2, 4, 6 and 18 hours), the “HLA-A2 binding affinity (time=0) and stability compared to native peptide” value is “highest HLA-A2 binding affinity (time=0) and stability (2, 4, 6 and 18 hours)”. In experiment [3] (setting [5]), the “CM CD8+ T cells” value came out at 47.8%, the “EM CD8+ T cells” value is recorded as 52.4% and the “Naïve CD8+ T cells” value was found to be 2.2%. In experiment [3] (setting [6]), the “CM CD8+ T cells” value came to 24.4%, the “EM CD8+ T cells” value worked out at 74.1%, the “Naïve CD8+ T cells” value turned out to be 0.72% and the “frequency of effector memory (CD45RO+/CCR7-) CD3+CD8+ T cells” value is reported as “increased”. In experiment [3] (after 5 cycles of stimulation), the “CM CD8+ T cells” value is recorded as 7.36%, the “EM CD8+ T cells” value is on record as 69.7% and the “Naïve CD8+ T cells” value is on record as 0.57%.

Take `Nc1cccc2c1CN(C1CCC(=O)NC1=O)C2=O` (stereo not drawn) [lenalidomide]: the “peptides-specific CTL activities against tumor cells” value with tumor cells is “enhanced the peptides-specific CTL activities against tumor cells”. The “CD8+ T cells with tetramer-positivity and IFN-γ production” value in experiment [4] was “triggered higher mean fold increases in CD8^+ T cells with tetramer-positivity and IFN-γ production”.

With “YLVAVACFL [heteroclitic TACI178-186, heteroclitic TACI peptide]”, the “HLA-A2 affinity … compared to native peptide” value in the experiment with HLA-A2 molecule [1] is on record as “no significant improvement in HLA-A2 affinity”.

In the case of “YLGLCLCAV [heteroclitic TACI166-174, heteroclitic TACI peptide]”, in the experiment with HLA-A2 molecule [1], the “HLA-A2 affinity … compared to native peptide” value is recorded as “no significant improvement in HLA-A2 affinity”.

On to “AILWTCLGL [BCMA54-62 (AILWTCLGL), native BCMA peptide]”, for which, in the experiment with HLA-A2 molecule [1], the “HLA-A2 binding affinity of native BCMA peptides” value is recorded as “highest HLA-A2 binding affinity in a dose-dependent manner” and the “HLA-A2 specificity” value is recorded as “second highest level of the specificity”.

As to “TLGLCLCAV [TACI166-174 (TLGLCLCAV), native TACI peptide]”, in the experiment with HLA-A2 molecule [1] (Example 13, six native peptides), the “HLA-A2 affinity of native TACI peptides” value was “highest level of affinity”. Besides, the “HLA-A2 specificity” value in the experiment with HLA-A2 molecule [1] is “highest level”.
